Where no end group is shown, it is not given here. [ ]: non-standard residue; d: D form. pS = N[C@@H](COP(=O)(O)O)C(=O)O
Legend:
[1] = molecular target: His6-tagged SPAK CCT domain (mouse SPAK 459–556) (mouse, UniProt Q9Z1W9 459-556); experiment: fluorescence polarisation
[2] = molecular target: T1, His6-tagged OSR1 CCT domain (human OSR1 433–527) (human, UniProt O95747 433-527); experiment: fluorescence polarisation
[3] = molecular target: T1, His6-tagged OSR1 CCT domain (human OSR1 …); experiment: peptide or protein array

T1 sequence (O95747 433-527): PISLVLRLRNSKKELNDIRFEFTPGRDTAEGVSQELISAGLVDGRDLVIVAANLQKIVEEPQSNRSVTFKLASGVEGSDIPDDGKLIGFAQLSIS

H-SAGRRFIVSPVPE-OH [Wild-type human WNK1 peptide 1253–1265 (NH3+-SAGRRFIVSPVPE-COO-)]
Ki [1]: 2.5 µM
Ki [2]: 5.1 µM

SAGRRFIV[pS]PVPE [WNK1 peptide 1253–1265 with phosphoserine at the +3 position]
fold decrease in affinity against the unphosphorylated peptide [1]: ~2.5 fold
fold decrease in affinity against the unphosphorylated peptide [2]: ~2.5 fold

QLVGRFQVTSSKE [Wild-type human WNK4 peptide 1012–1024 (QLVGRFQVTSSKE)]
Ki [1]: 7.2 µM
Ki [2]: 12.9 µM

QLVSRFQVTSSKE [WNK4 peptide 1012–1024 with the −2 glycine changed to serine]
binding result [1]: binds
binding result [2]: binds

QLVARFQVTSSKE [WNK4 peptide 1012–1024 with the −2 glycine changed to alanine (QLVARFQVTSSKE)]
binding result [1]: binds
binding result [2]: binds

Ac-QLVGRFQVTSSKE (also: covalently linked to the membrane) [Wild-type WNK4 1012–1024 base peptide on the peptide array]
binding result [3]: binds

SAGHHFIVSPVPE [WNK1 peptide 1253–1265 with the arginines replaced by histidine-histidine]
fold decrease in affinity against wild type [1]: ~7 fold
fold decrease in affinity against wild type [2]: ~7 fold

SAGKKFIVSPVPE [WNK1 peptide 1253–1265 with the arginines replaced by lysine-lysine]
Ki [1]: 4.2 µM
Ki [2]: 16.3 µM

SAGHAFIVSPVPE [WNK1 peptide 1253–1265 with the arginines replaced by histidine-alanine]
fold decrease in affinity against wild type [1]: 11 fold
fold decrease in affinity against wild type [2]: 11 fold

Reference: publication PMC12413468 (Communications Biology, 2025)
